Results taken from article PMC3297495, “A rice transient assay system identifies a novel domain in NRR required for interaction with NH1/OsNPR1 and inhibition of NH1-mediated transcriptional activation” (Plant Methods, 2012).

How the values were obtained:
Gal4:rTGA2.1 = Gal4:rTGA2.1 (rice (Oryza sativa L)); assay: cell-based or functional assay
Gal4:rLG2 = Gal4:rLG2 (rice (Oryza sativa L)); assay: cell-based or functional assay

B1: YN:NH1 (natural protein, rice (Oryza sativa L), UniProt Q9FDY4 1-582, looked up)
chain: MEPPTSHVTNAFSDSDSASVEEGGADADADVEALRRLSDNLAAAFRSPEDFAFLADARIAVPGGGGGGGDLLVHRCVLSARSPFLRGVFARRAAAAAGGGGEDGGERLELRELLGGGGEEVEVGYEALRLVLDYLYSGRVGDLPKAACLCVDEDCAHVGCHPAVAFMAQVLFAASTFQVAELTNLFQRRLLDVLDKVEVDNLLLILSVANLCNKSCMKLLERCLDMVVRSNLDMITLEKSLPPDVIKQIIDARLSLGLISPENKGFPNKHVRRIHRALDSDDVELVRMLLTEGQTNLDDAFALHYAVEHCDSKITTELLDLALADVNHRNPRGYTVLHIAARRREPKIIVSLLTKGARPADVTFDGRKAVQISKRLTKQGDYFGVTEEGKPSPKDRLCIEILEQAERRDPQLGEASVSLAMAGESLRGRLLYLENRVALARIMFPMEARVAMDIAQVDGTLEFNLGSGANPPPERQRTTVDLNESPFIMKEEHLARMTALSKTVELGKRFFPRCSNVLDKIMDDETDPVSLGRDTSAEKRKRFHDLQDVLQKAFHEDKEENDRSGLSSSSSSTSIGAIRPRR
Question: With B1 as the binder, how does the “UAS-Luc reporter (Luc/Gus) in rice protoplasts: Gal4:rTGA2.1 with untagged NH1 (Ubi-NH1) against Gal4:rTGA2.1 alone” value (Gal4:rTGA2.1) read?
Answer: ~2 fold

Question: And the “UAS-Luc reporter (Luc/Gus) in rice protoplasts: Gal4:rLG2 with untagged NH1 (Ubi-NH1) against Gal4:rLG2 alone (Figure 1)” value (Gal4:rLG2)?
Answer: ~2 fold

Question: And the “UAS-Luc reporter (Luc/Gus) in rice protoplasts: Gal4:rLG2 with untagged NH1 (Ubi-NH1) against Gal4:rLG2 alone (Figure 4A)” value (Gal4:rLG2)?
Answer: ~3 fold
